In paper PMC5207143:

Tests used:
[1] = molecular target: FcγRIIB on Raji cells (human (endogenous in Raji)) (UniProt P31994)
[2] = molecular target: human FcγRIIB receptor (on transfected Expi293F cells) (human) (UniProt P31994); assay: flow cytometry on cells; Expi293F cells transiently transfected with a human Fcγ receptor, 48 h after transfection; 1 to 10000 ng/ml test antibody, 1.5 h at 4 °C; R-phycoerythrin anti-human IgG secondary antibody; EC50 by nonlinear regression of mean fluorescence
[3] = molecular target: human FcγRIIA receptor, Arg131 allotype (on transfected Expi293F cells) (human); assay: as above
Chain of human FcγRIIA receptor, Arg131 allotype (on transfected Expi293F cells) (human) (P12318 other isoform, or with tags, fused parts or gaps): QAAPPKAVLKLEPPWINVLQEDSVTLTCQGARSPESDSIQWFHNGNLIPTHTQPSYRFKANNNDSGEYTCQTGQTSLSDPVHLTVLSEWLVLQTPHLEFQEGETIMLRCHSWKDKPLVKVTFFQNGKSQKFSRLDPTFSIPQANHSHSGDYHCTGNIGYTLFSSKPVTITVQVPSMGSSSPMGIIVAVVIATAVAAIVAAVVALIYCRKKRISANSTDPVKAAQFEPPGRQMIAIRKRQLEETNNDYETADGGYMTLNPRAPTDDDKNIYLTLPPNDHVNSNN

[4] = molecular target: OX40SF2IgG1E345R/E430G/S440Y (human); assay: SEC-MALS; purified antibody in solution; monomeric peak and a ∼900 kDa peak

Row | Binder | agonism in the HEK-Blue NF-κB reporter assay, HEK-Blue:OX40 cells co-cultured with Raji cells, 10 to 1000 ng/ml antibody; decreased when Raji cells were pre-blocked with 5 μg/ml 2B6 [1] [fold] | EC50 [2] [nM] | EC50 [3] [nM] | fold more potent EC50 than OX40SF2IgG1 [3] [fold] | stoichiometry N [4]
1 | OX40SF2IgG1S267E/L328F (antibody, V domains shown) VH: QVQLVQSGAEVKKPGSSVKVSCKASGYTFKDYTMHWVRQAPGQGLEWIGGIYPNNGGSTYNQNFKDRVTLTADKSTSTAYMELSSLRSEDTAVYYCARMGYHGPHLDFDVWGQGTTVTVSS VL: DIQMTQSPSSLSASVGDRVTITCKASQDVGAAVAWYQQKPGKAPKLLIYWASTRHTGVPSRFSGSGSGTDFTLTISSLQPEDFATYYCQQYINYPLTFGGGTKVEIK | > 2 | 3.1 | 1.5 | 20 | 
2 | OX40SF2IgG1E345R/E430G/S440Y (antibody, V domains shown) VH: QVQLVQSGAEVKKPGSSVKVSCKASGYTFKDYTMHWVRQAPGQGLEWIGGIYPNNGGSTYNQNFKDRVTLTADKSTSTAYMELSSLRSEDTAVYYCARMGYHGPHLDFDVWGQGTTVTVSS VL: DIQMTQSPSSLSASVGDRVTITCKASQDVGAAVAWYQQKPGKAPKLLIYWASTRHTGVPSRFSGSGSGTDFTLTISSLQPEDFATYYCQQYINYPLTFGGGTKVEIK |  |  |  |  | 6
